In the supplement of paper PMC9112550, “Optimization of the antimicrobial peptide Bac7 by deep mutational scanning” (BMC Biology, 2022):

Each sequence was assayed on Escherichia coli TOP10 (assay: shrunken log2 fold change of peptide-encoding DNA abundance (4.5 h post-induction vs induction); higher = less antimicrobial activity (less host growth inhibition)). Details: time post-induction: 4.5 h; library: site-saturation at positions 5, 18, 19, 20.
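Note: peptides expressed intracellularly from a pBAD plasmid library in pooled LB shake-flask culture, induced with 0.3% L-arabinose, DNA abundance read by NGS, three biological replicates, DESeq2 with apeglm shrinkage.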

Sequence | shrunken log2 fold change
RRIRERPPRLPRPRPRPAGWPRP | 0.555
RRIRVRPPRLPRPRPRPWCQPRP | -0.187
RRIRWRPPRLPRPRPRPIFQPRP | -0.103
RRIRHRPPRLPRPRPRPNSIPRP | -0.0178
RRIRVRPPRLPRPRPRPVWLPRP | 0.276
RRIRLRPPRLPRPRPRPVPSPRP | 0.157
RRIRDRPPRLPRPRPRPEKHPRP | 0.377
RRIRYRPPRLPRPRPRPTYCPRP | -0.165
RRIRYRPPRLPRPRPRPVYEPRP | 2.81
RRIRWRPPRLPRPRPRPPHGPRP | 0.428
RRIRVRPPRLPRPRPRPNCNPRP | -0.273
RRIRQRPPRLPRPRPRPDDAPRP | -0.0705
RRIRHRPPRLPRPRPRPQPKPRP | 0.24
RRIRLRPPRLPRPRPRPCTGPRP | -0.0081
RRIRSRPPRLPRPRPRPNQRPRP | 0.0415
RRIRNRPPRLPRPRPRPPACPRP | 0.301
RRIRCRPPRLPRPRPRPVDPPRP | 0.227
RRIRERPPRLPRPRPRPIQWPRP | 0.0338
RRIRFRPPRLPRPRPRPQNLPRP | -0.218
RRIRLRPPRLPRPRPRPTQPPRP | 0.634
RRIRDRPPRLPRPRPRPCVWPRP | 0.321
RRIRGRPPRLPRPRPRPGERPRP | 0.731
RRIRWRPPRLPRPRPRPLNIPRP | -0.211
RRIRTRPPRLPRPRPRPAWAPRP | 1.53
RRIRHRPPRLPRPRPRPENDPRP | 0.00527

Sequence | shrunken log2 fold change
RRIRIRPPRLPRPRPRPFARPRP | -0.0891
RRIRTRPPRLPRPRPRPGRCPRP | 0.178
RRIRMRPPRLPRPRPRPIPFPRP | 0.146
RRIRDRPPRLPRPRPRPYNFPRP | -0.0811
RRIRFRPPRLPRPRPRPQQAPRP | 0.366
RRIRPRPPRLPRPRPRPAPLPRP | 0.407
RRIRVRPPRLPRPRPRPEHEPRP | -0.12
RRIRIRPPRLPRPRPRPHLGPRP | 0.0798
RRIRDRPPRLPRPRPRPNRQPRP | -0.0252
RRIRVRPPRLPRPRPRPSHRPRP | -0.615
RRIRIRPPRLPRPRPRPSCAPRP | -0.249
RRIRFRPPRLPRPRPRPLHDPRP | -0.107
RRIRSRPPRLPRPRPRPGMAPRP | 0.0998
RRIRPRPPRLPRPRPRPELHPRP | 0.0832
RRIRYRPPRLPRPRPRPSNMPRP | -1.1
RRIRCRPPRLPRPRPRPRDEPRP | 0.342
RRIRGRPPRLPRPRPRPDPNPRP | 0.522
RRIRHRPPRLPRPRPRPWRKPRP | -0.00968
RRIRARPPRLPRPRPRPYCQPRP | -0.138
RRIRSRPPRLPRPRPRPDNSPRP | -0.13
RRIRNRPPRLPRPRPRPEPVPRP | -0.0258
RRIRHRPPRLPRPRPRPIIRPRP | -0.507
RRIRKRPPRLPRPRPRPHMQPRP | -0.0772
RRIRCRPPRLPRPRPRPIIQPRP | -0.465
RRIRWRPPRLPRPRPRPFACPRP | 0.00273

Sequence | shrunken log2 fold change
RRIRVRPPRLPRPRPRPCSQPRP | -0.0327
RRIRLRPPRLPRPRPRPRKCPRP | 0.309
RRIRKRPPRLPRPRPRPEIHPRP | 0.27
RRIRYRPPRLPRPRPRPQQYPRP | -1
RRIRFRPPRLPRPRPRPPNDPRP | 0.273
RRIRPRPPRLPRPRPRPNQSPRP | -0.247
RRIRLRPPRLPRPRPRPHQSPRP | -0.0648
RRIRDRPPRLPRPRPRPPSRPRP | -0.0515
RRIRARPPRLPRPRPRPEESPRP | -0.024
RRIRRRPPRLPRPRPRPMWSPRP | 0.311
RRIRDRPPRLPRPRPRPPQNPRP | 0.409
RRIRNRPPRLPRPRPRPARGPRP | 0.86
RRIRRRPPRLPRPRPRPAGRPRP | 0.41
RRIRNRPPRLPRPRPRPWFMPRP | 0.0336
RRIRDRPPRLPRPRPRPEGQPRP | 1.15
RRIRGRPPRLPRPRPRPNKSPRP | 0.96
RRIRWRPPRLPRPRPRPCDNPRP | 0.0838
RRIRARPPRLPRPRPRPDYVPRP | 0.353
RRIRGRPPRLPRPRPRPDIPPRP | 0.23
RRIRKRPPRLPRPRPRPKWQPRP | 0.0343
RRIRNRPPRLPRPRPRPHVPPRP | -0.528
RRIRGRPPRLPRPRPRPHLVPRP | 0.294
RRIRLRPPRLPRPRPRPRCIPRP | -0.0325
RRIRPRPPRLPRPRPRPCQFPRP | -0.246
RRIRGRPPRLPRPRPRPRQMPRP | -0.0496

Sequence | shrunken log2 fold change
RRIRIRPPRLPRPRPRPYTEPRP | -0.512
RRIRKRPPRLPRPRPRPPLKPRP | 0.419
RRIRSRPPRLPRPRPRPVTFPRP | -0.21
RRIRTRPPRLPRPRPRPKKHPRP | -0.265
RRIRLRPPRLPRPRPRPGAHPRP | 0.057
RRIRLRPPRLPRPRPRPQGWPRP | 0.495
RRIRERPPRLPRPRPRPGINPRP | -0.249
RRIRCRPPRLPRPRPRPNKPPRP | 0.0511
RRIRIRPPRLPRPRPRPHVDPRP | -0.294
RRIRCRPPRLPRPRPRPRRCPRP | 0.42
RRIRQRPPRLPRPRPRPVSVPRP | 0.028
RRIRYRPPRLPRPRPRPNSFPRP | -0.0457
RRIRGRPPRLPRPRPRPHGRPRP | 0.182
RRIRPRPPRLPRPRPRPADMPRP | 0.0113
RRIRPRPPRLPRPRPRPKRWPRP | 0.441
RRIRGRPPRLPRPRPRPKYHPRP | 0.00515
RRIRARPPRLPRPRPRPDQEPRP | 0.0233
RRIRYRPPRLPRPRPRPLQVPRP | -0.0974
RRIRPRPPRLPRPRPRPMDLPRP | -0.00399
RRIRSRPPRLPRPRPRPGEEPRP | 0.499
RRIRTRPPRLPRPRPRPASRPRP | 0.279
RRIRLRPPRLPRPRPRPIMKPRP | -0.489
RRIRRRPPRLPRPRPRPDVEPRP | 0.0547
RRIRDRPPRLPRPRPRPTEQPRP | -0.0141
RRIRYRPPRLPRPRPRPWDEPRP | -0.999

Sequence | shrunken log2 fold change
RRIRCRPPRLPRPRPRPRYRPRP | -0.176
RRIRLRPPRLPRPRPRPTNTPRP | -0.375
RRIRTRPPRLPRPRPRPALGPRP | 0.898
RRIRDRPPRLPRPRPRPATEPRP | 0.646
RRIRARPPRLPRPRPRPSTNPRP | 0.0112
RRIRVRPPRLPRPRPRPMQLPRP | -0.0252
RRIRWRPPRLPRPRPRPWIKPRP | -0.203
RRIRDRPPRLPRPRPRPYWVPRP | -0.129
RRIRARPPRLPRPRPRPSSGPRP | 0.412
RRIRARPPRLPRPRPRPVRRPRP | 0.723
RRIRWRPPRLPRPRPRPLYCPRP | -0.22
RRIRNRPPRLPRPRPRPNCEPRP | -0.185
RRIRNRPPRLPRPRPRPPVCPRP | 0.126
RRIRVRPPRLPRPRPRPLGGPRP | 0.27
RRIRVRPPRLPRPRPRPMNQPRP | -0.0672
RRIRHRPPRLPRPRPRPPHFPRP | 0.297
RRIRLRPPRLPRPRPRPGTRPRP | 0.309
RRIRGRPPRLPRPRPRPLGMPRP | 0.575
RRIRDRPPRLPRPRPRPHDVPRP | -0.00973
RRIRLRPPRLPRPRPRPVYWPRP | -0.14
RRIRWRPPRLPRPRPRPATRPRP | 0.38
RRIRNRPPRLPRPRPRPQYYPRP | -0.128
RRIRLRPPRLPRPRPRPVKEPRP | 0.0114
RRIRPRPPRLPRPRPRPFNEPRP | -0.347
RRIRVRPPRLPRPRPRPSLGPRP | 0.0433

Sequence | shrunken log2 fold change
RRIRVRPPRLPRPRPRPNKLPRP | -0.325
RRIRERPPRLPRPRPRPNFCPRP | 0.00589
RRIRDRPPRLPRPRPRPIRLPRP | 0.015
RRIRCRPPRLPRPRPRPTDKPRP | -0.243
RRIRFRPPRLPRPRPRPQKQPRP | -0.199
RRIRIRPPRLPRPRPRPHMEPRP | -0.332
RRIRYRPPRLPRPRPRPWQCPRP | 0.06
RRIRVRPPRLPRPRPRPFVRPRP | -0.0708
RRIRWRPPRLPRPRPRPAGMPRP | 0.321
RRIRWRPPRLPRPRPRPEHIPRP | -0.14
RRIRLRPPRLPRPRPRPSFCPRP | -0.403
RRIRQRPPRLPRPRPRPNFVPRP | -0.0869
RRIRNRPPRLPRPRPRPSIMPRP | -0.611
RRIRGRPPRLPRPRPRPNIKPRP | 0.136
RRIRMRPPRLPRPRPRPAPCPRP | 0.835
RRIRIRPPRLPRPRPRPTVTPRP | -0.303
RRIRLRPPRLPRPRPRPQTQPRP | 0.0159
RRIRYRPPRLPRPRPRPYMAPRP | -1.71
RRIRCRPPRLPRPRPRPKAIPRP | -0.0563
RRIRWRPPRLPRPRPRPGPQPRP | 0.938
RRIRGRPPRLPRPRPRPSIFPRP | 0.415
RRIRQRPPRLPRPRPRPMPGPRP | 0.0214
RRIRTRPPRLPRPRPRPCIVPRP | -0.164
RRIRMRPPRLPRPRPRPPPGPRP | 1.86
RRIRKRPPRLPRPRPRPDCAPRP | 1.1
